Measured values as given in patent publication US20140255414A1 (PROBIODRUG, published 2014).
Square brackets hold non-standard residues; d marks the D form. pGlu = O=C1CC[C@@H](C(=O)O)N1; PEG = not defined here

Legend:
Aβ(pE11-18)-PEG peptide = target: T1, Aβ(pE11-18)-PEG peptide (reading uncertain); test: ITC at 20 °C, peptide titrated into biotinylated antibody
T1 construct: The PEG attachment is not described further
T1 peptide: [pGlu]VHHQKLV-{PEG}
Description: 1.3.4.1 Determination of Thermodynamic Parameters With ITC, the thermodynamic parameters of the binding of anti Aβ11(pE) antibody from clone 13 at antigen Aβ11(pE) was determined. For the ITC experiment, the peptide Aβ(pE11-18)-PEG was used because the hydrophilic PEG group imparts hydrophilic properties and so it was possible to dissolve the peptide directly in ITC buffer. Former experiments with Aβ(pE11-20) could only be performed with 1-2% DMSO, due to the strong hydrophobicity of the peptide it was necessary to dissolve it with DMSO which could have an effect on the ITC binding properties. At first the antibody was dialyzed against ITC buffer (150 mM NaCl, 25 mM Na₂HPO₄, 25 mM KH₂PO₄, 1 mM EDTA, pH=7.1) over night at 4° C. The lyophilised peptide, stored at −20° C., was dissolved in identical ITC buffer pH=7.1 which was used for antibody dialysis. Both antibody and antigen must be in identical solutions, otherwise large heats of dilution will mask the desired observation. Before the ITC experiment, the concentration of antibody was determined by UV/VIS spectroscopy (see section 1.3.1). At first the antibody with e.g. 5.13 μM (see Table 4) was added into the sample cell and the reference cell was filled with distilled water. Then the antigen was injected into the sample cell with e.g. 81.78 μM (see Table 4). The antigen should be generally in twofold excess to the antibody, bearing in mind that an antibody has two binding sites the antigen was in the cell at least in fourfold excess to the antibody. The 30 injections (1×2 μl and 29×10 μl) were made with a 4-min interval between subsequent injections. The measurement of heat of reaction was performed at 20° C. Furthermore the heat of reaction was determined which was only generated by dilution of the antigen through the titration into ITC buffer (pH=7.1). Therefore the antigen was injected into the sample cell filled with ITC buffer. The heat of reaction which was generated during the titration of the antigen to the antibody was corrected about this value. The analysis of raw data and the determination of the association constant (KA), reaction stoichiometry (n), binding enthalpy (ΔH) and entropy (ΔS) was performed with Origin Software of MicroCal.

Aβ(pE11-30) peptide = target: T2, Aβ(pE11-30) peptide (N-terminal pyroglutamate (Aβ position 11)); test: direct ELISA: AβpE(11-30) coated at 0-500 ng/ml, 1 µg/ml biotinylated antibody pre-incubated with streptavidin-HRP, absorption 450/540 nm
T2 construct: Synthesized peptide; Amine-coupled to a CM5 chip for SPR, or adsorbed to the microplate for the direct ELISA
T2 peptide: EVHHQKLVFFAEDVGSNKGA
Description: AβpE(11-30) peptide with different concentrations was coated over night at 4° C. and then blocked with ELISA-Blocker (−T) 2 h at RT. Anti Aβ11(pE) antibody (clone 13) biotinylated was pre-incubated with streptavidin-HRP conjugate 10 min at RT and diluted in ELISA-Blocker (+T) were performed. Addition of 1 μg/ml antibody (clone 13). Wash cycles in-between incubations with 6×300 μl/well TBS-T buffer (except after peptide coating). TMB/H₂O₂ were added, incubated 30 min at RT (dark) and enzyme reaction was stopped with 1 M H₂SO₄. Absorption was measured at 450/540 nm at TECAN Sunrise.

- -TΔS (Aβ(pE11-18)-PEG peptide): -4.1 kJ/mol
- Ka (Aβ(pE11-18)-PEG peptide): 8e+06 M⁻¹
- Kd (Aβ(pE11-18)-PEG peptide): 0.125 µM
- Stoichiometry (N) (Aβ(pE11-18)-PEG peptide): 1.66
- binding result (Aβ(pE11-30) peptide): binds
B1: biotinylated monoclonal mouse anti Aβ11(pE) antibody (clone 13) (antibody, V domains shown)
VH: QVQLQQPGTELVKPGASVKLSCKASGFTFTSYWMHWVRQRPGQGLEWIGEINPSNGRTNYNEKFKSKATLTVDKSSSTAYMQLSSLTSEDSEVYYCARGDLAWDWSAYWGQGTLVTVSA
VL: DIVMSQSPSSLAVSAGEKVTMSCKSSQSLFYSRTRKNYLAWYQQKPGQSPKLLIYWASTRESGVPDRFTGSGSGTDFTLTISSVQAEDLAVYYCKQSYNLWSFGGGTKLEIKR
modifications: about 2 biotin molecules (NHS-PEO4-Biotin) coupled per antibody; sites not stated
notes: Mouse IgG; also called anti Aβ11(pE)-biotin antibody (clone 13); mAb mouse anti Aβ11(pE)-Biotin
